Results from PMC7227486.

Experiments:
[1] = biological target: infectious CHIKV particles (strain 181/25) (chikungunya virus strain 181/25); assay: cryo-EM structure
[2] = biological target: CHIKV virus-like particles (strain 37997), produced from C-E3-E2-6K-E1 (chikungunya virus strain 37997); assay: cryo-EM structure
[3] = biological target: CHIKV virus-like particles (strain 37997), produced from C-E3-E2-6K-E1 (chikungunya virus strain 37997); assay: SPR

Row | Substance | stoichiometry N (Mxra8 proteins per particle) [1] | stoichiometry N (Mxra8 molecules per virion) [2] | KD, high affinity site (kinetically derived, two-site model) [3] [nM] | KD, lower affinity sites (kinetically derived, two-site model) [3] [nM]
1 | mammalian cell-generated murine Mxra8 (residues 23-336), cleaved from Mxra8-HRV-Fc (from UniProt Q9DBV4 23-336) (domain or fragment) | 60 | 240 |  | 
2 | recombinant murine Mxra8 (soluble; preparation not stated for this experiment) (from UniProt Q9DBV4 20-340) (domain or fragment) |  |  | 84 | 270
